Measurements taken from patent US20210206861A1 (SUNSHINE GUOJIAN PHARMACEUTICAL SHANGHAI, published 2021).

B1: 4-2-Humanized-IgG1 (antibody)
heavy: not shown
light: DIQMTQSPSSLSASVGDRVTITCRASSSINYMHWYQQKPGKAPKPWIYAASNLASGVPSRFSGSGSGTDFTLTISSLQPEDFATYYCQQWSSYPITFGQGTKVEIKRTVAAPSVFIFPPSDEQLKSGTASVVCLLNNFYPREAKVQWKVDNALQSGNSQESVTEQDSKDSTYSLSSTLTLSKADYEKHKVYACEVTHQGLSSPVTKSFNRGEC
notes: expressed in HEK293E; also called humanized antibody 4-2-Humanized-IgG1
B2: 4-2-Humanized-IgG4 (antibody)
heavy: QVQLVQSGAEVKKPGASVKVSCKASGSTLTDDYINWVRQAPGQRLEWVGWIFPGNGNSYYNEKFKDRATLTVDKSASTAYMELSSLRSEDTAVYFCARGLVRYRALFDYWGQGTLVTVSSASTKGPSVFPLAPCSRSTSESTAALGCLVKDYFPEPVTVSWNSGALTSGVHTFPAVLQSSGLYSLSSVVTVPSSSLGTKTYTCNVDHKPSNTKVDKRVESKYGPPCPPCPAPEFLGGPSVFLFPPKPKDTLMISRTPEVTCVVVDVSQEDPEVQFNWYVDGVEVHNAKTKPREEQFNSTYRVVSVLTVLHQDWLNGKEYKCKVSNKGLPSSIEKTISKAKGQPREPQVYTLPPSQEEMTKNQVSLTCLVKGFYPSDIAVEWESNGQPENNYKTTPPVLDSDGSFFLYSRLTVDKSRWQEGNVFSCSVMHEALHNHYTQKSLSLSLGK
light: B1 light
notes: also called 4-2-Hu-IgG4
B3: 4-2-Humanized-IgG1-SELF (antibody)
heavy: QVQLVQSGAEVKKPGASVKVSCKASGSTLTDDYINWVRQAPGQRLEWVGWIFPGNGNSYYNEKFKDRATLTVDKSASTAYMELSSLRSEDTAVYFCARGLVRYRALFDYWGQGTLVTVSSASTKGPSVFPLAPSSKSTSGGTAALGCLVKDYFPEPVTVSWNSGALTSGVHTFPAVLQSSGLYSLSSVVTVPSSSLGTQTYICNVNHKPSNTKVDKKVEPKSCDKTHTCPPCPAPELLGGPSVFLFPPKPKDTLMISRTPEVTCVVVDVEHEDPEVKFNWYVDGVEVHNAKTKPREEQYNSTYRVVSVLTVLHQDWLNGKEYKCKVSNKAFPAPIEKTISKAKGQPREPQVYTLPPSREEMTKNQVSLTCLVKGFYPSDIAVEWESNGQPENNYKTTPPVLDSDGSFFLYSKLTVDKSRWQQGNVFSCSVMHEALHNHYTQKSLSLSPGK
light: B1 light
notes: also called SELF mutant of anti-human IL-4R humanized antibody
B4: 4-2-Chimeric-IgG1 (antibody, V domains shown)
VH: QVQLQQSGPELVKPGASVKISCTASGSTLTDDYINWVKQRPGRGLEWVGWIFPGNGNSYYNEKFKDKATLIVDKSSSTAYMLLSSLTSEDSAVYFCARGLVRYRALFDYWGQGTTLTVSS
VL: QIVLSQSPAILSASPGEKVTMTCRASSSINYMHWYQQKPGSSPKPWIYAASNLASGVPARFSGSGSGTSFSLTISRVEAEDAATYYCQQWSSYPITFGSGTKLEIK
notes: also called chimeric antibody 4-2-Chimeric-IgG1
B5: Dupilumab (antibody, V domains shown)
VH: EVQLVESGGGLEQPGGSLRLSCAGSGFTFRDYAMTWVRQAPGKGLEWVSSISGSGGNTYYADSVKGRFTISRDNSKNTLYLQMNSLRAEDTAVYYCAKDRLSITIRPRYYGLDVWGQGTTVTVSS
VL: DIVMTQSPLSLPVTPGEPASISCRSSQSLLYSIGYNYLDWYLQKSGQSPQLLIYLGSNRASGVPDRFSGSGSGTDFTLKISRVEAEDVGFYYCMQALQTPYTFGQGTKLEIKR

biological target: human IL-4R (human, UniProt P24394 26-825); assay: cell-based or functional assay

**Q.** For B1, which “IC50 of inhibition of IL-4-induced CD23 expression by PBMC, first experiment” value is on record?
**A.** 0.0294 mg/L

**Q.** And the “IC50 of inhibition of IL-4-induced CD23 expression by PBMC, second experiment” value?
**A.** 0.00356 mg/L

**Q.** What about the “IC50 of inhibition of IL-4-induced IgE secretion by PBMC, first experiment” value of the same binder?
**A.** 0.448 mg/L

**Q.** What about the “IC50 of inhibition of IL-4-induced IgE secretion by PBMC, second experiment” value of the same binder?
**A.** 0.0613 mg/L

**Q.** And the “IC50 of inhibition of IL-4-induced TF-1 cell proliferation, first experiment” value?
**A.** 0.561 mg/L

**Q.** And the “IC50 of inhibition of IL-4-induced TF-1 cell proliferation, second experiment” value?
**A.** 0.427 mg/L

**Q.** What about the “IC50 of inhibition of IL-4-induced TF-1 cell proliferation, third experiment” value (shortened to “IC50 of inhibition … third experiment”) of the same binder?
**A.** 0.52 mg/L

**Q.** And the “IC50 of inhibition of IL-13-induced TF-1 cell proliferation” value?
**A.** 0.0343 mg/L

**Q.** B2 was tested. Which “IC50 of inhibition of IL-4-induced CD23 expression by PBMC, first experiment” value did it give?
**A.** 0.232 mg/L

**Q.** And the “IC50 of inhibition of IL-4-induced CD23 expression by PBMC, second experiment” value?
**A.** 0.034 mg/L

**Q.** And the “IC50 of inhibition of IL-4-induced IgE secretion by PBMC, first experiment” value?
**A.** 1.95 mg/L

**Q.** What about the “IC50 of inhibition of IL-4-induced IgE secretion by PBMC, second experiment” value of the same binder?
**A.** 0.413 mg/L

**Q.** What about the “IC50 of inhibition of IL-4-induced TF-1 cell proliferation” value of the same binder?
**A.** 2.78 mg/L

**Q.** What about the “IC50 of inhibition of IL-4-induced TF-1 cell proliferation, first experiment” value of the same binder?
**A.** 1.29 mg/L

**Q.** And the “IC50 of inhibition of IL-4-induced TF-1 cell proliferation, second experiment” value?
**A.** 1.11 mg/L

**Q.** And the “IC50 of inhibition … third experiment” value?
**A.** 1.15 mg/L

**Q.** B3 was tested. Which “IC50 of inhibition of IL-4-induced CD23 expression by PBMC, first experiment” value did it give?
**A.** 0.0074 mg/L

**Q.** And the “IC50 of inhibition of IL-4-induced CD23 expression by PBMC, second experiment” value?
**A.** 0.00049 mg/L

**Q.** What about the “IC50 of inhibition of IL-4-induced IgE secretion by PBMC, first experiment” value of the same binder?
**A.** 0.0508 mg/L

**Q.** What about the “IC50 of inhibition of IL-4-induced IgE secretion by PBMC, second experiment” value of the same binder?
**A.** 0.0266 mg/L

**Q.** And the “IC50 of inhibition of IL-4-induced TF-1 cell proliferation” value?
**A.** 0.292 mg/L

**Q.** With B4 as the binder, how does the “IC50 of inhibition of IL-4-induced TF-1 cell proliferation” value read?
**A.** 0.225 mg/L

**Q.** What about the “IC50 of inhibition of IL-13-induced TF-1 cell proliferation” value of the same binder?
**A.** 0.0816 mg/L

**Q.** For B5, which “IC50 of inhibition of IL-4-induced CD23 expression by PBMC, first experiment” value is on record?
**A.** 0.0909 mg/L

**Q.** And the “IC50 of inhibition of IL-4-induced CD23 expression by PBMC, second experiment” value?
**A.** 0.0206 mg/L

**Q.** And the “IC50 of inhibition of IL-4-induced IgE secretion by PBMC, first experiment” value?
**A.** 0.996 mg/L

**Q.** What about the “IC50 of inhibition of IL-4-induced IgE secretion by PBMC, second experiment” value of the same binder?
**A.** 0.189 mg/L

**Q.** And the “IC50 of inhibition of IL-4-induced TF-1 cell proliferation, first experiment” value?
**A.** 0.842 mg/L

**Q.** What about the “IC50 of inhibition of IL-4-induced TF-1 cell proliferation, second experiment” value of the same binder?
**A.** 0.616 mg/L

**Q.** What about the “IC50 of inhibition … third experiment” value of the same binder?
**A.** 0.687 mg/L

**Q.** And the “IC50 of inhibition of IL-13-induced TF-1 cell proliferation” value?
**A.** 0.0738 mg/L

biological target: T1, IL-4R-ECD-FLAG (human, UniProt P24394 26-232); assay: ELISA on coated IL-4R-ECD-FLAG (100 ng/ml), HRP goat anti-human secondary
T1 construct: Expressed in HEK293, purified on an anti-FLAG column; also called IL-4R antigen; human IL-4R; not shown: FLAG tag added to the end of the IL-4R-ECD coding region

**Q.** Which EC50 does the source give for B1 here?
**A.** 0.0124 mg/L

**Q.** With B4 as the binder, how does the EC50 read?
**A.** 0.0118 mg/L

biological target: T1, IL-4R-ECD-FLAG; assay: SPR, Biacore T200; antibody captured on Protein A/G CM5 chip, IL-4R-ECD-FLAG injected
Description: Next cycle was repeated after eluting the chip with 6M guanidine hydrochloride regeneration buffer. The data was analyzed using Biacore T200 Evaluation Software.

**Q.** For B1, which Kd is on record?
**A.** 0.717 nM

**Q.** And the koff?
**A.** 0.000133 s⁻¹

**Q.** And the kon?
**A.** 186000 M⁻¹ s⁻¹

**Q.** Which results are given for B2?
**A.** Kd: 0.692 nM; koff: 0.00013 s⁻¹; kon: 188000 M⁻¹ s⁻¹

biological target: T2, Biotinated IL-4R-ECD-hFc (human, UniProt P24394 26-232, biotinylated with Biotin N-hydroxysuccinimide ester (sites not given)); assay: blocking ELISA: coated IL-4-hFc (2000 ng/ml), biotinylated IL-4R-ECD-hFc (100 ng/ml) with antibody in dilution series, Streptavidin-HRP
T2 construct: also called biotinylated IL-4R-ECD-hFc; not shown: hFc (IgG1) tag
Description: The plate was washed with phosphate buffer containing 0.05% Tween-20 (PBST) and blocked by adding PBST containing 1% bovine serum albumin to each well. Then the plate was washed with PBST. […] The plate was washed with PBST. Streptavidin-HRP which was diluted with PBST containing 1% BSA at a dilution ratio of 1:1000 was added at 100 μl/well and incubated at 37° C. for 30 min. Chromogenic solution (TMB substrate solution) was added at 100 μl/well, and incubated at room temperature for 1˜5 min; then 50 μl/well of the stop solution was added to stop the color reaction. OD450 values were read with a microplate reader and GraphPad Prism6 was used to analyze data, prepare graphs, and calculate IC50.

**Q.** B1 was tested. Which IC50 did it give?
**A.** 0.138 mg/L

**Q.** With B2 as the binder, how does the IC50 read?
**A.** 0.14 mg/L

**Q.** With B3 as the binder, how does the IC50 read?
**A.** 0.144 mg/L
